Reference: paper PMC3239214 (Nucleic Acids Research, 2011)

Molecular target: the molecule itself
Assay: SEC

B1: GyrA_ΔCTD (domain or fragment, Bacillus subtilis, UniProt P05653 1-489, looked up)
chain: MSEQNTPQVREINISQEMRTSFLDYAMSVIVSRALPDVRDGLKPVHRRILYAMNDLGMTSDKPYKKSARIVGEVIGKYHPHGDSAVYESMVRMAQDFNYRYMLVDGHGNFGSVDGDSAAAMRYTEARMSKISMEILRDITKDTIDYQDNYDGSEREPVVMPSRFPNLLVNGAAGIAVGMATNIPPHQLGEIIDGVLAVSENPDITIPELMEVIPGPDFPTAGQILGRSGIRKAYESGRGSITIRAKAEIEQTSSGKERIIVTELPYQVNKAKLIEKIADLVRDKKIEGITDLRDESDRTGMRIVIEIRRDANANVILNNLYKQTALQTSFGINLLALVDGQPKVLTLKQCLEHYLDHQKVVIRRRTAYELRKAEARAHILEGLRVALDHLDAVISLIRNSQTAEIARTGLIEQFSLTEKQAQAILDMRLQRLTGLEREKIEEEYQSLVKLIAELKDILANEYKVLEIIREELTEIKERFNDERRTEIVT
  stoichiometry N: 2
